First the molecules themselves.
B1: Fv-4-F1108 (antibody, human IgG1, kappa)
heavy: QVQLQESGPGLVKPSETLSLTCAVSGHSISHDHAWSWVRQPPGEGLEWIGFISYSGITNYNPSLQGRVTISRDNSKNTLYLQMNSLRAEDTAVYYCARSLARTTAMDYWGEGTLVTVSSASTKGPSVFPLAPSSKSTSGGTAALGCLVKDYFPEPVTVSWNSGALTSGVHTFPAVLQSSGLYSLSSVVTVPSSSLGTQTYICNVNHKPSNTKVDKKVEPKSCDKTHTCPPCPAPELLGGPSVFLFPPKPKDTLYISRTPEVTCVVVDVSHEDPEVKFNWYVDGVEVHNAKTKPREEQYNSTYRVVSVLTVLHQDWLNGKEYKCKVSNKALPAPIEKTISKAKGQPREPQVYTLPPSRDELTKNQVSLTCLVKGFYPSDIAVEWESNGQPENNYKTTPPVLDSDGSFFLYSKLTVDKSRWQQGNKFSCSVMHEALHYHVTQKSLSLSP
light: DIQMTQSPSSLSASVGDSVTITCQASTDISSHLNWYQQKPGKAPELLIYYGSHLLSGVPSRFSGSGSGTDFTFTISSLEAEDAATYYCGQGNRLPYTFGQGTKVEIERTVAAPSVFIFPPSDEQLKSGTASVVCLLNNFYPREAKVQWKVDNALQSGNSQESVTEQDSKDSTYSLSSTLTLSKADYEKHKVYACEVTHQGLSSPVTKSFNRGEC
B2: Fv-4-F1232 (antibody)
heavy: B1 heavy with K424V, Q440K, S442D
light: B1 light
B3: Fv-4-F1107 (antibody, human IgG1, kappa)
heavy: B1 heavy with K424D
light: B1 light
B4: Fv-4-F1060 (antibody, human IgG1, kappa)
heavy: B1 heavy with Q388S, K424V
light: B1 light
B5: Fv-4-F1066 (antibody, human IgG1, kappa)
heavy: B1 heavy with K424S
light: B1 light
B6: Fv-4-F1114 (antibody)
heavy: B1 heavy with K424V, S442Q
light: B1 light
B7: Fv-4-F1122 (antibody, human IgG1, kappa)
heavy: B1 heavy with T252V, T309Q, V310P, Q313A, K424V, Q440R
light: B1 light
B8: Fv-4-F1105 (antibody, human IgG1, kappa)
heavy: B1 heavy with K424S, S426R
light: B1 light
B9: Fv-4-F1069 (antibody, human IgG1, kappa)
heavy: B1 heavy with K424V, Q440E
light: B1 light
B10: Fv-4-F1112 (antibody, human IgG1, kappa)
heavy: B1 heavy with K424V, Q440K
light: B1 light
B11: Fv-4-F1231 (antibody)
heavy: B1 heavy with K424V, Q440K, S442E
light: B1 light
B12: Fv-4-F1070 (antibody, human IgG1, kappa)
heavy: B1 heavy with K424V, Q440R
light: B1 light
B13: Fv-4-F1119 (antibody, human IgG1, kappa)
heavy: B1 heavy with T252V, T309Q, V310P, Q313A, K424E
light: B1 light
B14: Fv-4-F1111 (antibody, human IgG1, kappa)
heavy: B1 heavy with K424V, S426K
light: B1 light
B15: Fv-4-F1121 (antibody, human IgG1, kappa)
heavy: B1 heavy with T252V, T309Q, V310P, Q313A, K424E, S426R
light: B1 light
B16: Fv-4-F1109 (antibody, human IgG1, kappa)
heavy: B1 heavy with K424T
light: B1 light
B17: Fv-4-F1106 (antibody)
heavy: B1 heavy with K424V, Q440R, S442E
light: B1 light
B18: Fv-4-F1072 (antibody)
heavy: B1 heavy with K424V, S442E
light: B1 light
B19: Fv-4-F1067 (antibody, human IgG1, kappa)
heavy: B1 heavy with K424V, S426E
light: B1 light
B20: Fv-4-F1123 (antibody)
heavy: B1 heavy with T252V, T309Q, V310P, Q313A, K424V, S442E
light: B1 light
B21: Fv-4-F1065 (antibody, human IgG1, kappa)
heavy: B1 heavy with K424R
light: B1 light
B22: Fv-4-F1110 (antibody, human IgG1, kappa)
heavy: B1 heavy with K424Q
light: B1 light
B23: Fv-4-F1104 (antibody, human IgG1, kappa)
heavy: B1 heavy with K424E, S426R
light: B1 light
B24: Fv-4-F1064 (antibody, human IgG1, kappa)
heavy: B1 heavy with K424E
light: B1 light
B25: Fv-4-F1113 (antibody)
heavy: B1 heavy with K424V, S442D
light: B1 light
B26: Fv-4-F1062 (antibody, human IgG1, kappa)
heavy: B1 heavy with P389R, K424V
light: B1 light
B27: Fv-4-F1120 (antibody, human IgG1, kappa)
heavy: B1 heavy with T252V, T309Q, V310P, Q313A, K424V, S426R
light: B1 light
B28: Fv-4-F1061 (antibody, human IgG1, kappa)
heavy: B1 heavy with P389E, K424V
light: B1 light
B29: Fv-4-F1071 (antibody, human IgG1, kappa)
heavy: B1 heavy with K424V, Q440S
light: B1 light
B30: Fv-4-F1068 (antibody, human IgG1, kappa)
heavy: B1 heavy with K424V, S426R
light: B1 light
B31: Fv-4-F1063 (antibody, human IgG1, kappa)
heavy: B1 heavy with P389S, K424V
light: B1 light
B32: Fv-4-F1073 (antibody)
heavy: B1 heavy with K424V, S442R
light: B1 light
B33: Fv-4-F1230 (antibody)
heavy: B1 heavy with K424V, Q440R, S442D
light: B1 light
B34: Fv-4-F1124 (antibody)
heavy: B1 heavy with T252V, T309Q, V310P, Q313A, K424V, Q440R, S442E
light: B1 light
B35: F1670 (antibody)
heavy: B1 heavy with L237R, S241K, Y254M, K424V, Q440R, S442E
light: B1 light
B36: F1716 (antibody)
heavy: B1 heavy with L237R, S241K, Y254M, K424V, H435D, Q440K, S442E
light: B1 light
B37: F1712 (antibody)
heavy: B1 heavy with L237R, S241K, Y254M, K424V, Q440K, S442E
light: B1 light
B38: F1681 (antibody)
heavy: B1 heavy with L237R, S241K, Y254M, K424V, V438T, Q440R, S442E
light: B1 light
B39: F1715 (antibody)
heavy: B1 heavy with L237R, S241K, Y254M, K424V, H435D, Q440R, S442D
light: B1 light
B40: F1683 (antibody)
heavy: B1 heavy with L237R, S241K, Y254M, K424V, V438F, Q440R, S442E
light: B1 light
B41: F1675 (antibody)
heavy: B1 heavy with L237R, S241K, Y254M, K424V, H435D
light: B1 light
B42: F1714 (antibody)
heavy: B1 heavy with L237R, S241K, Y254M, K424V, H435D, Q440R, S442E
light: B1 light

Changes are numbered by the printed parent chain.

T1 sequence (P55899 24-297 limits assumed, chain 1 of 2): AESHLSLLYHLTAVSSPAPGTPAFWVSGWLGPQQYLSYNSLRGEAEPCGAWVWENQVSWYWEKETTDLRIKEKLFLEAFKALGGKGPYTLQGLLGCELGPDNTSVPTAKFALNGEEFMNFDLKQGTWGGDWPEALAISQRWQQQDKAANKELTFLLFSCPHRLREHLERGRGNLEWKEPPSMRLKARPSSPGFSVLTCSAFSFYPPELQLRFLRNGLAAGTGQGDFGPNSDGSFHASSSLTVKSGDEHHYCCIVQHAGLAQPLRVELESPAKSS
T1 sequence (P61769 21-119 limits assumed, chain 2 of 2): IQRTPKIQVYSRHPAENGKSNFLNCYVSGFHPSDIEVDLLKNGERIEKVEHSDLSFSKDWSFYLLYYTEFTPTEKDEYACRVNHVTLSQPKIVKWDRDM

The first test addresses T1, soluble human FcRn (human, UniProt P55899 24-297; P61769 21-119).
T1 construct: Heterodimer of alpha chain and beta2-microglobulin; also called hFcRn
Briefly: SPR (Biacore), pH 7.0.
As to B1, the Kd was 130 nM.
B2 had a Kd of 97.9 nM. This Kd and that of the molecule before are within 1.5-fold of each other.
Same read-out and setting: then B3, with 120 nM; and B4, with 140 nM.
B5 displayed a Kd of 140 nM.
Same read-out and setting: in the case of B6 it was 130 nM.
On the same count and under the same terms, then B7, with 14 nM; and B8, with 150 nM.
Consider B9, for which binding was characterised by a dissociation constant (Kd) of 140 nM.
The same measure, in the same setting: in the case of B10 it was 120 nM; in that of B11, 97.3 nM; in that of B12, 170 nM.
Same read-out and setting: in the case of B13 it was 10 nM; in that of B14, 160 nM; in that of B15, 10 nM.
B16 showed a Kd of 130 nM.
Still for that read-out and setting: then B17, with 140 nM; and B18, with 130 nM.
The same measure, in the same setting: in the case of B19 it was 130 nM; in that of B20, 9.5 nM.
The same measure, in the same setting: then B21, with 140 nM; and B22, with 130 nM.
B23: the Kd came out at 180 nM.
Still for that read-out and setting: in the case of B24 it was 130 nM; in that of B25, 120 nM; in that of B26, 120 nM.
For B27, binding was characterised by a dissociation constant (Kd) of 10 nM. Compared with the last molecule, the Kd is about 12-fold lower.
Take B28: binding was characterised by a dissociation constant (Kd) of 120 nM. Compared with the last molecule, the Kd is about 12-fold higher.
Still for that read-out and setting: in the case of B29 it was 120 nM; in that of B30, 170 nM.
The same measure, in the same setting: in the case of B31 it was 140 nM; in that of B32, 134 nM.
Still for that read-out and setting: then B33, with 112 nM; and B34, with 12 nM.

In the next test the target is T1, soluble human FcRn. In words: SPR (Biacore), pH 6.0.
B35 had a Kd of 64 nM.
Still for that read-out and setting: then B36, with 96 nM; and B37, with 55 nM.
On the same count and under the same terms, then B38, with 84 nM.
B39 came in with a Kd of 110 nM. The Kd values of the last two molecules are within 1.5-fold of each other.
B40 showed a Kd of 57 nM.
The same measure, in the same setting: in the case of B41 it was 97 nM; in that of B42, 110 nM.
